“And” between values parts separate entries of the source, which are not always exact repeats. Identical values can stand only once.

For orientation: EC50 (read off the curve) means the midpoint of the concentration-response curve. A lower EC50 (read off the curve) goes with a more potent agent. One may read the Kd as the free concentration of one partner at which half of the binding sites on the other are occupied at equilibrium, for simple one-to-one binding. The koff is the rate constant with which the complex falls apart. One may read the kon as a measure of how fast the partners come together.

For experiment [1], the target named is T1, human FolR1 on cells (HeLa, SKOV3, HT-29, transfected HEK) (human, UniProt P15328 25-234).
T1 construct: whole, on cells
Put plainly: flow cytometry on HeLa cells, fluorescently labeled anti-human secondary antibody. As to the method: FIGS. 2A-C depict graphs summarizing Binding of FoLR1 IgG binders to HeLa cells. Binding of newly generated FolR1 binders to FolR1 expressed on HeLa cells were determined by flow cytometry. Bound antibodies were detected with a fluorescently labeled anti-human secondary antibody.
The identified binders were converted into a human IgG1 format and binding to FolR1 high expressing HeLa cells was addressed. […] In a next step the selected clones were tested for specificity to human FolR1 by excluding binding to the closely related human FolR2. HEK cells were transiently transfected with either human FolR1 or human FolR2 to address specificity. […] In parallel cross-reactivity of the FolR1 clones to cyno FolR1 was addressed by performing binding studies to HEK cells transiently transfected with cyno FolR1. […] These FolR1 TCBs were then used to compare induction of internalization after binding to FolR1 on HeLa cells.
Background: Flow cytometry measures light scatter and fluorescence of single cells or particles in a stream.

In experiment [2] the target is T2, MUC1 SEA-avi-His, biotinylated (human, biotin on avi tag).
T2 construct: E. coli derived; also called MUC1 antigen; SEA domain of human MUC1
T2 chain: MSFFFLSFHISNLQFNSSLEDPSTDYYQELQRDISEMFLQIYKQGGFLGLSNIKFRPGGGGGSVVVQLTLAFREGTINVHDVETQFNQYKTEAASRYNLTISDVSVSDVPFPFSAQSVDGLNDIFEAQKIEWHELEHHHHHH
Put plainly: SPR (ProteOn XPR36), biotinylated MUC1 on NLC chip, Fab as analyte, 1:1 Langmuir fit. As to the method: Immobilization of recombinant antigens (ligand): Antigens were diluted with PBST (10 mM phosphate, 150 mM sodium chloride pH 7.4, 0.005% Tween 20) to 10 μg/ml, then injected at 30 μl/minute at varying contact times, to achieve immobilization levels of about 200 response units (RU) in vertical orientation. […] Buffer (PBST) was injected along the sixth channel to provide an “in-line” blank for referencing. Association rate constants (kₒₙ) and dissociation rate constants (koff) were calculated using a simple one-to-one Langmuir binding model in ProteOn Manager v3.1 software by simultaneously fitting the association and dissociation sensorgrams. The equilibrium dissociation constant (KD) was calculated as the ratio koff/kₒₙ. Regeneration was performed in horizontal orientation using 10 mM Glycine, pH 1.5 at a flow rate of 100 ul/min for a contact time of 30 s.

Experiment [3] has as its target T3, recombinant murine BCMA Fc(kih) (murine, UniProt O88472 2-49, biotinylated at the avi-tag of the Fc knob chain (not in the letters)).
T3 construct: also called muBCMA Fc(kih); not shown: human IgG1 hinge-Fc(knob)-avi and the unfused Fc(hole) chain
T3 chain: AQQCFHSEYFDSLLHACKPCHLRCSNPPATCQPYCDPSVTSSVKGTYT
Put plainly: SPR Biacore, binder captured via anti-Fab, BCMA-Fc analyte. (Surface plasmon resonance follows binding to a sensor surface in real time, without labels.)

The target in experiment [4] is T4, recombinant human BCMA Fc(kih) (human, UniProt Q02223 4-53, biotin on avi-tag where coupled to SA chip ; biotin on the avi-tag of the Fc-knob chain where coupled to the SA chip (tag not in the letters)).
T4 construct: also called huBCMA Fc(kih); huBCMA; not shown: human IgG1 hinge-Fc(knob)-avi fused to the ECD, and the unfused Fc(hole) chain
T4 chain: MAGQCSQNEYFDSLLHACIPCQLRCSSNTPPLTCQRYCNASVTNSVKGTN
The description is as above.

Experiment [5] addresses T5, human BCMA on myeloma cells (H929, U266) (human, UniProt Q02223 1-184).
T5 sequence (looked up): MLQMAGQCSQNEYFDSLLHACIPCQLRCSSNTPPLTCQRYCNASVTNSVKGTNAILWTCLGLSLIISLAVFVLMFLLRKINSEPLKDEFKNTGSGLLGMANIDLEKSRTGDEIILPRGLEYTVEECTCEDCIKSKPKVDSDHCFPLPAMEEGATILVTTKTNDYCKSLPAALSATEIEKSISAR
Put plainly: cell-based or functional assay.

Experiment [6] has as its target T4, recombinant human BCMA Fc(kih). Put plainly: SPR Biacore, 1:1 Langmuir fit, as in Example 41. As for the experimental part:
The affinity of the interaction between anti-BCMA antibodies or BCMA-TCB CLC antibodies and recombinant human BCMA Fc(kih) was also determined. Anti-human Fab antibody (GE Healthcare) was directly coupled on a CM5 chip at pH 5.0 using the standard amine coupling kit (Biacore, Freiburg/Germany). The immobilization level was about 6500 RU. […] The dissociation was monitored for 120 or 400 seconds. Bulk refractive index differences were corrected for by subtracting the response obtained on reference flow cell. […] Kinetic constants were derived using the Biacore T200 Evaluation Software (v 1.0, Biacore AB, Uppsala/Sweden), to fit rate equations for 1:1 Langmuir binding by numerical integration (Table 41).
The anti-BCMA antibody comprising two heavy chains of 83A10 and two common light chains were produced using the general techniques for generation of bivalent IgG antibodies as described in the Material and general methods section.

T1 sequence (P15328 25-234): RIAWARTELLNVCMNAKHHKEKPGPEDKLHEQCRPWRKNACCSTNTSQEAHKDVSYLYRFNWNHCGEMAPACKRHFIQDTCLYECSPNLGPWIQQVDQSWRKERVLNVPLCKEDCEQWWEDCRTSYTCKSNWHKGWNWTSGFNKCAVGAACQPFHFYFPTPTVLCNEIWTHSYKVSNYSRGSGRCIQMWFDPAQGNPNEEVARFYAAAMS

B1: 19E5 IgG (antibody, V domains shown)
VH: QVQLVQSGAEVKKPGASVKVSCKASGYTFTSYYMHWVRQAPGQGLEWMGIINPSGGSTSYAQKFQGRVTMTRDTSTSTVYMELSSLRSEDTAVYYCARGEWRRYTSFDYWGQGTLVTVSS
VL: QAVVTQEPSLTVSPGGTVTLTCGSSTGAVTTSNYANWVQEKPGQAFRGLIGGTNKRAPGTPARFSGSLLGGKAALTLSGAQPEDEAEYYCALWYSNLWVFGGGTKLTVL
notes: human IgG1
Take B1: the “EC50 (read off the curve)” value in experiment [1] is about 2 µg/mL.

B2: 19A4 IgG (antibody, V domains shown)
VH: QVQLVQSGAEVKKPGASVKVSCKASGYTFTSYYMHWVRQAPGQGLEWMGIINPSGGSTSYAQKFQGRVTMTRDTSTSTVYMELSSLRSEDTAVYYCARGGWIRWEHFDYWGQGTLVTVSS
VL: QAVVTQEPSLTVSPGGTVTLTCGSSTGAVTTSNYANWVQEKPGQAFRGLIGGTNKRAPGTPARFSGSLLGGKAALTLSGAQPEDEAEYYCALWYSNLWVFGGGTKLTVL
notes: human IgG1
Take B2: in experiment [1], the “EC50 (read off the curve)” value is about 3 µg/mL.

B3: 106D2 Fab (Fab, V domains shown)
VH: EVQLLESGGGLVQPGGSLRLSCAASGFTFRVYAMSWVRQAPGKGLEWVSGISETGSYTYYADSVKGRFTISRDNSKNTLYLQMNSLRAEDTAVYYCARYPYGFDYWGQGTLVTVSS
VL: QAVVTQEPSLTVSPGGTVTLTCGSSTGAVTTSNYANWVQEKPGQAFRGLIGGTNKRAPGTPARFSGSLLGGKAALTLSGAQPEDEAEYYCALWYSNLWVFGGGTKLTVL
notes: bacterial Fab
As for B3, in experiment [2], binding was characterised by a dissociation constant (Kd) of 30 nM, the koff is 0.000295 s⁻¹ and the kon turned out to be 9800 M⁻¹ s⁻¹.

B4: 58D6 Fab (Fab, V domains shown)
VH: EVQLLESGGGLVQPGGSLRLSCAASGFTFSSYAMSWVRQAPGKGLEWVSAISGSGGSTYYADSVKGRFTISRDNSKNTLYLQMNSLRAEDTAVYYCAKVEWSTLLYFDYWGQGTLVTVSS
VL: QAVVTQEPSLTVSPGGTVTLTCGSSTGAVTTSNYANWVQEKPGQAFRGLIGGTNKRAPGTPARFSGSLLGGKAALTLSGAQPEDEAEYYCALWYSNLWVFGGGTKLTVL
notes: bacterial Fab
As for B4, in experiment [2], binding was characterised by a dissociation constant (Kd) of 23.5 nM, the koff was 0.000798 s⁻¹ and the kon stood at 34000 M⁻¹ s⁻¹.

B5: 20G6 IgG (antibody, V domains shown)
VH: QVQLVQSGAEVKKPGASVKVSCKASGYTFTSYYMHWVRQAPGQGLEWMGIINPSGGSTSYAQKFQGRVTMTRDTSTSTVYMELSSLRSEDTAVYYCARGEWIRYYHFDYWGQGTLVTVSS
VL: QAVVTQEPSLTVSPGGTVTLTCGSSTGAVTTSNYANWVQEKPGQAFRGLIGGTNKRAPGTPARFSGSLLGGKAALTLSGAQPEDEAEYYCALWYSNLWVFGGGTKLTVL
notes: human IgG1
For B5, in experiment [1], the binding result is recorded as “binds”.

B6: 110A5 Fab (Fab, V domains shown)
VH: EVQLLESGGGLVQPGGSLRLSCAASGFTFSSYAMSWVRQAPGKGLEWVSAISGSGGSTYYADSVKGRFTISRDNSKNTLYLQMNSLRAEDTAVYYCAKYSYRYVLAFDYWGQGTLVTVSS
VL: QAVVTQEPSLTVSPGGTVTLTCGSSTGAVTTSNYANWVQEKPGQAFRGLIGGTNKRAPGTPARFSGSLLGGKAALTLSGAQPEDEAEYYCALWYSNLWVFGGGTKLTVL
notes: bacterial Fab
For B6, in experiment [2], binding was put at a Kd of 134 nM, the koff was 0.00164 s⁻¹ and the kon is 12200 M⁻¹ s⁻¹.

B7: Mov19 IgG (antibody, V domains shown)
VH: QVQLQQSGAELVKPGASVKISCKASGYSFTGYFMNWVKQSHGKSLEWIGRIHPYDGDTFYNQNFKDKATLTVDKSSNTAHMELLSLTSEDFAVYYCTRYDGSRAMDYWGQGTTVTVSS
VL: DIELTQSPASLAVSLGQRAIISCKASQSVSFAGTSLMHWYHQKPGQQPKLLIYRASNLEAGVPTRFSGSGSKTDFTLNIHPVEEEDAATYYCQQSREYPYTFGGGTKLEIK
Regarding B7, in experiment [1], the concentration for a half-maximal effect (EC50 (read off the curve)) was about 1 µg/mL.

B8: pSCHLI333-TCB CLC (bispecific antibody)
heavy 1: not shown
heavy 2: QVQLVQSGAEVKKPGASVKVSCKASGYMFSSFGMSWVRQAPGQGLEWMGWIYPVGQGTWYAQKFQGRVTMTRDTSTSTVYMELSSLRSEDTAVYYCARVSYPPSHFDYWGQGTLVTVSSASTKGPSVFPLAPSSKSTSGGTAALGCLVKDYFPEPVTVSWNSGALTSGVHTFPAVLQSSGLYSLSSVVTVPSSSLGTQTYICNVNHKPSNTKVDKKVEPKSCDKTHTCPPCPAPEAAGGPSVFLFPPKPKDTLMISRTPEVTCVVVDVSHEDPEVKFNWYVDGVEVHNAKTKPREEQYNSTYRVVSVLTVLHQDWLNGKEYKCKVSNKALGAPIEKTISKAKGQPREPQVCTLPPSRDELTKNQVSLSCAVKGFYPSDIAVEWESNGQPENNYKTTPPVLDSDGSFFLVSKLTVDKSRWQQGNVFSCSVMHEALHNHYTQKSLSLSPGK
light: QAVVTQEPSLTVSPGGTVTLTCGSSTGAVTTSNYANWVQEKPGQAFRGLIGGTNKRAPGTPARFSGSLLGGKAALTLSGAQPEDEAEYYCALWYSNLWVFGGGTKLTVLGQPKAAPSVTLFPPSSEELQANKATLVCLISDFYPGAVTVAWKADSSPVKAGVETTTPSKQSNNKYAASSYLSLTPEQWKSHRSYSCQVTHEGSTVEKTVAPTECS
notes: also called pSCHLI333 BCMAxCD3 TCB
In the case of B8, the Kd in experiment [3] was found to be 7190 nM; in experiment [4], 164 nM. Also, the “EC50 redirected T-cell killing, H929” value in experiment [5] is 980 pM and 0.19 µg/ml.

B9: pSCHLI373-TCB CLC (bispecific antibody)
heavy 1: not shown
heavy 2: EVQLVESGGGLVKPGGSLRLSCAASGFSFSNSWMNWVRQAPGKGLEWVGTIRQKTYGGTTDYAAPVKGRFTISRDDSKNTLYLQMNSLKTEDTAVYYCTTGGLFGYWDYWGQGTLVTVSSASTKGPSVFPLAPSSKSTSGGTAALGCLVKDYFPEPVTVSWNSGALTSGVHTFPAVLQSSGLYSLSSVVTVPSSSLGTQTYICNVNHKPSNTKVDKKVEPKSCDKTHTCPPCPAPEAAGGPSVFLFPPKPKDTLMISRTPEVTCVVVDVSHEDPEVKFNWYVDGVEVHNAKTKPREEQYNSTYRVVSVLTVLHQDWLNGKEYKCKVSNKALGAPIEKTISKAKGQPREPQVCTLPPSRDELTKNQVSLSCAVKGFYPSDIAVEWESNGQPENNYKTTPPVLDSDGSFFLVSKLTVDKSRWQQGNVFSCSVMHEALHNHYTQKSLSLSPGK
light: QAVVTQEPSLTVSPGGTVTLTCGSSTGAVTTSNYANWVQEKPGQAFRGLIGGTNKRAPGTPARFSGSLLGGKAALTLSGAQPEDEAEYYCALWYSNLWVFGGGTKLTVLGQPKAAPSVTLFPPSSEELQANKATLVCLISDFYPGAVTVAWKADSSPVKAGVETTTPSKQSNNKYAASSYLSLTPEQWKSHRSYSCQVTHEGSTVEKTVAPTECS
Take B9: the “EC50 redirected T-cell killing, H929” value in experiment [5] was 1590 pM and 0.31 µg/ml.

B10: 83A10-CLC anti-BCMA IgG (antibody, V domains shown)
VH: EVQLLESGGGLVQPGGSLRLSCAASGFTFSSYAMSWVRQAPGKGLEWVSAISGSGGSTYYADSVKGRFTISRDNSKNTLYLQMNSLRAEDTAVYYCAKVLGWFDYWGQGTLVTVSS
VL: QAVVTQEPSLTVSPGGTVTLTCGSSTGAVTTSNYANWVQEKPGQAFRGLIGGTNKRAPGTPARFSGSLLGGKAALTLSGAQPEDEAEYYCALWYSNLWVFGGGTKLTVLG
notes: two heavy chains of 83A10 and two common light chains
As for B10, in experiment [6], the Kd turned out to be 24.3 nM, the koff stood at 0.00213 s⁻¹ and the kon was determined as 87800 M⁻¹ s⁻¹.
